Molecular target: T1, S. cerevisiae Ggc1(C222S) with C-terminal His6-tag (S. cerevisiae, UniProt P38988 1-300, C222S)
T1 sequence (looked up): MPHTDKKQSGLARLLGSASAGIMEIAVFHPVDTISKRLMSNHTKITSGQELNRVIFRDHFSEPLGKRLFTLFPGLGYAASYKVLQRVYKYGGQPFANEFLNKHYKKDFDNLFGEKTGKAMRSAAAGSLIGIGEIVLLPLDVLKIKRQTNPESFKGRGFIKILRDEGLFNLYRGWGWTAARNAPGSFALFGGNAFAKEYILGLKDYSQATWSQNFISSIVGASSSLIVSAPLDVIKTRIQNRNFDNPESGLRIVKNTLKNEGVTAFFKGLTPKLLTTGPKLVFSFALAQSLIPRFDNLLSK
Test: pull-down

binding result: binds
B1: TIM8·13(Tim8_(K30F,S36L)) mutant chaperone complex (complex, S. cerevisiae)
chain 1: MSSLSTSDLASLDDTSKKEIATFLEGENSFQKVQMLIHQFTNICFKKCVESVNDSNLSSQEEQCLSNCVNRFLDTNIRIVNGLQNTR
chain 2: GGLSSIFGGGAPSQQKEAATTAKTTPNPIAKELKNQIAQELAVANATELVNKISENCFEKCLTSPYATRNDACIDQCLAKYMRSWNVISKAYISRIQNASASGEI
